This note sets out measurements from patent US20190038660.

The series relates to ZF6-DBD (Artificial Sequence). Put plainly: cell_activity. The settings on record: in vivo porcine retina, AAV8 DBR-R vector 1x10^12 gc, hRHO-s-ΔZF6 promoter, qPCR 2 months after delivery; binding inferred from repression, not measured …. On the technique in general: Quantitative PCR measures a nucleic acid by following its amplification.
Chain of ZF6-DBD (Artificial Sequence) (chain, as listed by the source): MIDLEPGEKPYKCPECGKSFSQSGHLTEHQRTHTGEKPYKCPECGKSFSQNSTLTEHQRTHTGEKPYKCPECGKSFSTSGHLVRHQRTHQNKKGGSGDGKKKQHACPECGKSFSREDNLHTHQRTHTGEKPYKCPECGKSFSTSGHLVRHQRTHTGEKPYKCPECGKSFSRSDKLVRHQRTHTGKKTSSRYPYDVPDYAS

Substance “porcine Rhodopsin proximal promoter (ZF6 target region)” showed an activity (% repression of Rho transcript) of 35.
